# Experimental data taken from article PMC11931385, “Structural and functional analysis of cancer-associated missense variants in the retinoblastoma protein pocket domain” (The Journal of Biological Chemistry, 2025).
# Changes are numbered by the printed parent chain. Names and notes keep the numbering of the source. No end group written: not given here. TMR = tetramethyl rhodamine dye
# B1: TMR-E2F1^TD, peptide of the E2F1 transactivation domain (peptide)
# peptide: {TMR}-GEGIRDLFDCDFGDLTPLD
# notes: also called E2F^TD; source: synthetic peptide, bought: GenScript
# B2: TMR-E7^LxCxE, LxCxE peptide of the E7 oncoprotein from HPV (peptide)
# peptide: DLYCYEQLN
# modifications: also: TMR label, position not given here
# notes: source: synthetic peptide, bought: GenScript
# How the values were obtained:
# Experiment in all cases: fluorescence polarisation; 25 °C; unlabeled Rb^P titrated against 1.5 nM TMR-E2F1^TD or 7.5 nM TMR-E7^LxCxE; 25 mM Tris pH 8.0, 200 mM NaCl, 1 mM DTT, 0.1% Tween-20; 2 min incubation; quadratic fit; apparent Kd for the variants, Kd for WT
# Conditions in all cases: both partners purified
# Rb^P K462T = target: T1, Rb^P K462T (human, UniProt P06400 380-788, K462T)
# T1 construct: also called variant 9
# T1 sequence (looked up): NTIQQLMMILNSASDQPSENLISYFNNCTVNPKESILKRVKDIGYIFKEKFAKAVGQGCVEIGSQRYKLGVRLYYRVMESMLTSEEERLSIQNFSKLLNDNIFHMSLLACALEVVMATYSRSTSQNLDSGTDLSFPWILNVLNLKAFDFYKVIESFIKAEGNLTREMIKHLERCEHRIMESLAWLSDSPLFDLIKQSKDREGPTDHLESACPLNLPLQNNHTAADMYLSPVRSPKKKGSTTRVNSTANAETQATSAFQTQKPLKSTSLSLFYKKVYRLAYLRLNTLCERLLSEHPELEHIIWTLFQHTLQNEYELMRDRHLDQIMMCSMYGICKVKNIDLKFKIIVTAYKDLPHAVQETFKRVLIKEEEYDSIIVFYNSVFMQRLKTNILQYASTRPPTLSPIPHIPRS
# Rb^P E492Q = target: T2, Rb^P E492Q (human, UniProt P06400 380-788, E492Q)
# T2 construct: also called variant 18
# T2 sequence (looked up): T1 sequence (looked up) with T83K, E113Q
# Rb^P P595L = target: T3, Rb^P P595L (human, UniProt P06400 380-788, P595L)
# T3 construct: also called variant 35
# T3 sequence (looked up): T1 sequence (looked up) with T83K, P216L
# Rb^P T620M = target: T4, Rb^P T620M (human, UniProt P06400 380-788, T620M)
# T4 construct: also called variant 40
# T4 sequence (looked up): T1 sequence (looked up) with T83K, T241M
# Rb^P M704V = target: T5, Rb^P M704V (human, UniProt P06400 380-788, M704V)
# T5 construct: also called variant 66
# T5 sequence (looked up): T1 sequence (looked up) with T83K, M325V
Binder,Kd (Rb^P K462T) [nM],Kd (Rb^P E492Q) [nM],Kd (Rb^P P595L) [nM],Kd (Rb^P T620M) [nM],Kd (Rb^P M704V) [nM]
B1,30,22,46,24,41
B2,8,14,14,6,18
